According to the supplement of paper PMC10065799, “High-throughput profiling of sequence recognition by tyrosine kinases and SH2 domains using bacterial peptide display” (eLife, 2023):

Legend:
AncSZ = assay: phosphorylation enrichment, bacterial display (enrichment ratio); higher = better substrate or ligand; peptides without Tyr show the background
EPHB1 = EPHB1 (UniProt P54762); assay: as above
EPHB2 = EPHB2 (UniProt P29323); assay: as above
FGFR1 = FGFR1 (UniProt P11362); assay: as above
FGFR3 = FGFR3 (UniProt P22607); assay: as above
Fer (mouse) = assay: as above
Fes = Fes (UniProt P07332); assay: as above
Fes, sequence (P07332 whole entry, looked up): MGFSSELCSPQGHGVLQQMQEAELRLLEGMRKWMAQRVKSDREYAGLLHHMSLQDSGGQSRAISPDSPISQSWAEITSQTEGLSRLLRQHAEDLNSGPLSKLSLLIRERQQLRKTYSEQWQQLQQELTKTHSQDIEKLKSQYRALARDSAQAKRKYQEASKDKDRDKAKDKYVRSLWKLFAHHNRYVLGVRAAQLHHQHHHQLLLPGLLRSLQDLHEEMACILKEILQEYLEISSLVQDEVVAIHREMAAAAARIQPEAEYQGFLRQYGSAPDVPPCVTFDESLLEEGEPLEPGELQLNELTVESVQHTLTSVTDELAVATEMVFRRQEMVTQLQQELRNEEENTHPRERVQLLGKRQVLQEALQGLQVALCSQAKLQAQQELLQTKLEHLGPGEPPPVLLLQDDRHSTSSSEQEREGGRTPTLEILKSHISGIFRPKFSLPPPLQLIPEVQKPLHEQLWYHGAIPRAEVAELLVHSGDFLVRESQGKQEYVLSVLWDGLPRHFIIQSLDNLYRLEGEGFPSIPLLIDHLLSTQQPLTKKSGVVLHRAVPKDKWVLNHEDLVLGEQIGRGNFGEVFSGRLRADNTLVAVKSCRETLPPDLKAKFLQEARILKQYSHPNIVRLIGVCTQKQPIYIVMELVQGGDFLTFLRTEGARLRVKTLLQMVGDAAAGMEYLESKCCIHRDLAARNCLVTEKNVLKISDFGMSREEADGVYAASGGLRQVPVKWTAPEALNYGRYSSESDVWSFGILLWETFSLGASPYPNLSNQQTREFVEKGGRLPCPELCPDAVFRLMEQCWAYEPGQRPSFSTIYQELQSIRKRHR

Fyn = Fyn (UniProt P06241); assay: as above
Hck = Hck (UniProt P08631); assay: as above
Jak2 = Jak2 (UniProt O60674); assay: as above
Jak2, sequence (O60674 whole entry, looked up): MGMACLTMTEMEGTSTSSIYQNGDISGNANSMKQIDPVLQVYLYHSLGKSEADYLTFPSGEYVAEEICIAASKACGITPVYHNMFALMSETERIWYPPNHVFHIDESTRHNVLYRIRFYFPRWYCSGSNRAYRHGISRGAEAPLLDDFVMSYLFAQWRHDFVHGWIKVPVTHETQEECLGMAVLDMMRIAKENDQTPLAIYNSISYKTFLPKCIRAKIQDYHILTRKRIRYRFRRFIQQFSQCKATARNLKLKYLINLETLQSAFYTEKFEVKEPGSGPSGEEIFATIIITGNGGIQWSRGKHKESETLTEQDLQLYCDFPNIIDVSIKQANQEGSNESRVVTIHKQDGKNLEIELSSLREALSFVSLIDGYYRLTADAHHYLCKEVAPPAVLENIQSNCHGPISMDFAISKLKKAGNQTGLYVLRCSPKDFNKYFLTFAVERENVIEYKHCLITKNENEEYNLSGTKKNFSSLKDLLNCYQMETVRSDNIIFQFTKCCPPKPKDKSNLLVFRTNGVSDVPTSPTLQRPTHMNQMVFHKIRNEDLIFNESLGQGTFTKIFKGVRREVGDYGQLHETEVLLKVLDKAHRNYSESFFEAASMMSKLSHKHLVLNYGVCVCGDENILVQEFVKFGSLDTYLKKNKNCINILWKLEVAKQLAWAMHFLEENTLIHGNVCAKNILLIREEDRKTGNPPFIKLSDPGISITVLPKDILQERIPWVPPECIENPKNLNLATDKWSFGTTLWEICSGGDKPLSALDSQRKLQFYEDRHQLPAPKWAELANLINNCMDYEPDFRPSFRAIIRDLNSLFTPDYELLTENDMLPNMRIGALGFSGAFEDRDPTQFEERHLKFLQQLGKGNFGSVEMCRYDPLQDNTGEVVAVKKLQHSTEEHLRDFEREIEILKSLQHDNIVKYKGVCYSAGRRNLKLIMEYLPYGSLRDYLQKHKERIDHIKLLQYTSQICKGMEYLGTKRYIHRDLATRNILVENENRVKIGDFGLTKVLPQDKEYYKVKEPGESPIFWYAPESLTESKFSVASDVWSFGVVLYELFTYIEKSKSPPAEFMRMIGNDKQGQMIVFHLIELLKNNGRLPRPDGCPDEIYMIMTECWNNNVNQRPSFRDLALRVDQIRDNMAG

MERTK = MERTK (UniProt Q12866); assay: as above
MERTK, sequence (Q12866 whole entry, looked up): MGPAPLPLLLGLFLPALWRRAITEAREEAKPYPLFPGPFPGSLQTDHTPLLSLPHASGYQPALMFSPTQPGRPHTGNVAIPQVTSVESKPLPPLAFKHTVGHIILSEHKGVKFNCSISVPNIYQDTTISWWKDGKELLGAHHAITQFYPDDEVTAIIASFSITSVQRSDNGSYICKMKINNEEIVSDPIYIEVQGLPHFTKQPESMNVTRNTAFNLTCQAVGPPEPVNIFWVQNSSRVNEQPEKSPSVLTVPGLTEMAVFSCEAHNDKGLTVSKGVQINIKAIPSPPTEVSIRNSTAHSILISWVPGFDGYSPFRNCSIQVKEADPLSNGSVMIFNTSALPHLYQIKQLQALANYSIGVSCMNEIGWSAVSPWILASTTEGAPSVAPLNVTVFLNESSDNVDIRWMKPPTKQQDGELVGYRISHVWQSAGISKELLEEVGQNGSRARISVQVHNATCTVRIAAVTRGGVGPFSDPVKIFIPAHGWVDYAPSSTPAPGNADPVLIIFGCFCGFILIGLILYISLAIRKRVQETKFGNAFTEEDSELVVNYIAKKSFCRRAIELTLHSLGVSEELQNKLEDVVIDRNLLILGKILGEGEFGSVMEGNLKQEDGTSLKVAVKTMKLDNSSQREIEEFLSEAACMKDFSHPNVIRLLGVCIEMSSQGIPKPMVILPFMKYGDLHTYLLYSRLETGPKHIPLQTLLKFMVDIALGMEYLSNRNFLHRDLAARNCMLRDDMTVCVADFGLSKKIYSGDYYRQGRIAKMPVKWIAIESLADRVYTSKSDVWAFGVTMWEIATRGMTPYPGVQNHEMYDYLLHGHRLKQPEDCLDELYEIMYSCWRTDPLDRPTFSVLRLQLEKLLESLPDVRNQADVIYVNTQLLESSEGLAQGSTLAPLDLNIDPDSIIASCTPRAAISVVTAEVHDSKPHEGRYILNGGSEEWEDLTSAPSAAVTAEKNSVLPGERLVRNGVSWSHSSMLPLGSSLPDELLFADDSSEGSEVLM

c-Abl (mouse) = assay: as above
c-Src = assay: as above
Grb2 SH2 = Grb2 SH2 (UniProt P62993); assay: SH2 binding enrichment of the phosphorylated peptide, bacterial display (enrichment ratio); higher = better substrate or ligand; peptides without Tyr show the background
SHP2-C SH2 = assay: as above
c-Src SH2 = assay: as above
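Throughout, for SH2 binding enrichment of the phosphorylated peptide, bacterial display: peptide library displayed on the E. coli surface as eCPX fusions, selected cells deep-sequenced, score is each peptide's frequency after selection divided by its frequency in the input.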
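Throughout, for phosphorylation enrichment, bacterial display: 11-residue human phosphosite peptides and single-mutation variants displayed on the E. coli surface, counted by deep sequencing, each peptide's frequency after selection divided by its frequency in the unselected input library; frequency after pTyr selection over input frequency; kinase dosed for 20-30% of maximal phosphorylation in three min.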

EPHB2, sequence (P29323 whole entry, looked up): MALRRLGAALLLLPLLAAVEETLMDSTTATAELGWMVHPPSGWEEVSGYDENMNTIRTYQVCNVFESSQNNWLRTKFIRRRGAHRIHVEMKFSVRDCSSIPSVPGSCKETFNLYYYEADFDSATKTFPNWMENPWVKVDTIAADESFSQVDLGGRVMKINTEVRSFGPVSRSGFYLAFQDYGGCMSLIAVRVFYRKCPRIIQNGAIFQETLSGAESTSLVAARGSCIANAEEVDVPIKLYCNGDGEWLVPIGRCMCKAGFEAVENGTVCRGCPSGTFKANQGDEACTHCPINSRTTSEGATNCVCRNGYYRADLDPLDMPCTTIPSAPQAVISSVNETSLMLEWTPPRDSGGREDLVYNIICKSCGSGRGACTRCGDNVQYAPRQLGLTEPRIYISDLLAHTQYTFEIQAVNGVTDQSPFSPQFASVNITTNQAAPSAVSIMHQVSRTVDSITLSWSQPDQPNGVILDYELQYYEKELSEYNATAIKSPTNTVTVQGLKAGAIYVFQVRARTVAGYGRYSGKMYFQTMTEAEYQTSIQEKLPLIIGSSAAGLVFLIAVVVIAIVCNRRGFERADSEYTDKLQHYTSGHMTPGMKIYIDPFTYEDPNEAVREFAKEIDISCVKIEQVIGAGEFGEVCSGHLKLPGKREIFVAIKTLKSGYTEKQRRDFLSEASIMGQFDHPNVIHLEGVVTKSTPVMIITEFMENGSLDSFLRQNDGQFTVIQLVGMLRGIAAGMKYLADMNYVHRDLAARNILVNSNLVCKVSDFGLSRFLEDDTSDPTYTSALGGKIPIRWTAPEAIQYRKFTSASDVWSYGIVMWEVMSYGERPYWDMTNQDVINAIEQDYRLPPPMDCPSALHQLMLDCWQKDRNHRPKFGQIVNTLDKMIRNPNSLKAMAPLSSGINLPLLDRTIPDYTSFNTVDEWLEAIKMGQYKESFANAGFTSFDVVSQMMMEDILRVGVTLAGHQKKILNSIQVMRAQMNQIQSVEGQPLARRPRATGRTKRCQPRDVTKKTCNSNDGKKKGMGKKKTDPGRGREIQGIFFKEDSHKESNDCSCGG
EPHB1, sequence (P54762 whole entry, looked up): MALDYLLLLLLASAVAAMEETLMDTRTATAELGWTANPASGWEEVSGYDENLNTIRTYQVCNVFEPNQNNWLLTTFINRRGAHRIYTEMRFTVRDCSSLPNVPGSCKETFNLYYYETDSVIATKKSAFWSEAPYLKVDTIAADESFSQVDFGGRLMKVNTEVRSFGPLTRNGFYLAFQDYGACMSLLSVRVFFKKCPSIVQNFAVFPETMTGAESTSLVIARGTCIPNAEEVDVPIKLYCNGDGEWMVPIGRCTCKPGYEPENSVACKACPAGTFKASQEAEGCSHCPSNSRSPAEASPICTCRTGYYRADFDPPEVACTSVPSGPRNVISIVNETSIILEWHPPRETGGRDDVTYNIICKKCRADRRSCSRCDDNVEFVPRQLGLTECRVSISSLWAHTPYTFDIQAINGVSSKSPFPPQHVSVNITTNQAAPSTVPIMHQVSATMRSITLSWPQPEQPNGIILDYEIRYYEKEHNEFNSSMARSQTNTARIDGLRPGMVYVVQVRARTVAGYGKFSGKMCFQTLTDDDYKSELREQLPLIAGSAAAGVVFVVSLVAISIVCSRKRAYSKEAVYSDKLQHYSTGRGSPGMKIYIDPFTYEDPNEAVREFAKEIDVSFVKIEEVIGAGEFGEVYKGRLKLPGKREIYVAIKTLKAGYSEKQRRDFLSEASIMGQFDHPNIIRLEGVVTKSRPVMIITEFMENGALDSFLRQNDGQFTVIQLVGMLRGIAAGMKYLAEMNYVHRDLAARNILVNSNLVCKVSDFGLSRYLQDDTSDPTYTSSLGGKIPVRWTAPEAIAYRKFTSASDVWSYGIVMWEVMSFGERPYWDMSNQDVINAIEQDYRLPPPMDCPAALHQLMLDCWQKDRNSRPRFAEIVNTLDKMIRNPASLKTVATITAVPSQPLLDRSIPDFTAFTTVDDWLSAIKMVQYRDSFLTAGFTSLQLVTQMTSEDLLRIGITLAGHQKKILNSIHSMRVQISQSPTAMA

Sequence | SH2 binding enrichment (Grb2 SH2) | SH2 binding enrichment (SHP2-C SH2) | SH2 binding enrichment (c-Src SH2) | phosphorylation enrichment (AncSZ) | phosphorylation enrichment (EPHB1) | phosphorylation enrichment (EPHB2) | phosphorylation enrichment (FGFR1) | phosphorylation enrichment (FGFR3) | phosphorylation enrichment (Fer (mouse)) | phosphorylation enrichment (Fes) | phosphorylation enrichment (Fyn) | phosphorylation enrichment (Hck) | phosphorylation enrichment (Jak2) | phosphorylation enrichment (MERTK) | phosphorylation enrichment (c-Abl (mouse)) | phosphorylation enrichment (c-Src)
ENAGFYFRISA | 0.729 | 0.566 | 0.669 | 1.32 | 0.587 | 0.73 | 0.467 | 0.844 | 0.674 | 1.42 | 0.44 | 0.492 | 1.55 | 0.36 | 1 | 0.492
FMRGMYFRMTD [PLA2G6_Y541_K545T_YF] | 0.941 | 1.43 | 0.914 | 1.09 | 0.698 | 0.563 | 0.496 | 0.663 | 0.506 | 1.2 | 0.434 | 0.513 | 1.39 | 0.438 | 0.715 | 0.481
YYLGKYLQEVL [KLB_Y910] | 0.877 | 0.66 | 0.686 | 1.2 | 0.506 | 0.593 | 3.66 | 2.92 | 0.523 | 1.34 | 0.568 | 0.565 | 1.3 | 1.42 | 0.902 | 0.523
NGRQCYSCRGN [PLAUR_Y217_K220R] | 1.03 | 0.769 | 1.31 | 0.375 | 0.261 | 0.319 | 0.356 | 0.31 | 0.274 | 0.461 | 0.299 | 0.35 | 0.39 | 0.346 | 0.374 | 0.294
KKCTTYIDCDL [ASPA_Y64_R63T] | 0.883 | 0.826 | 0.703 | 0.975 | 0.48 | 0.474 | 0.571 | 0.665 | 0.713 | 1.14 | 0.42 | 0.491 | 0.81 | 0.391 | 0.601 | 0.415
LVSCAYQMARG [FGFR1_Y605_V607M] | 0.731 | 0.9 | 0.661 | 1.22 | 0.578 | 0.79 | 0.66 | 0.882 | 0.824 | 2.32 | 0.589 | 0.741 | 0.937 | 0.489 | 0.998 | 1.4
QGFDTYFGFLL [ARSB_Y165_R160Q_YF] | 0.717 | 0.724 | 0.345 | 3.29 | 4.39 | 7.17 | 6.18 | 5.31 | 8.02 | 2.08 | 11.4 | 8.45 | 4.81 | 6.29 | 1.33 | 7.09
SDGHEYIFVDP [PDGFRB_Y579_YF] | 0.769 | 0.544 | 0.769 | 2.08 | 0.478 | 0.486 | 1.75 | 1.37 | 0.447 | 0.811 | 0.509 | 0.43 | 1 | 0.425 | 0.573 | 0.512
RRETPYGGGGG [FUS_Y526_R524T] | 0.685 | 0.54 | 0.477 | 0.769 | 0.568 | 0.62 | 0.957 | 1.07 | 0.438 | 0.68 | 0.718 | 0.604 | 0.551 | 0.721 | 0.487 | 0.628
SRIWVYNHFRW [BRCA2_Y2621_YF] | 1.15 | 1.37 | 1.12 | 1.15 | 0.597 | 0.612 | 0.435 | 0.78 | 0.413 | 1.29 | 0.423 | 0.477 | 1.13 | 0.44 | 0.853 | 0.479
HLDRSYSFSFS [PEAR1_Y890_R885H_YF] | 0.808 | 0.448 | 0.563 | 1.75 | 0.638 | 0.658 | 0.841 | 0.897 | 0.999 | 2.08 | 0.561 | 0.726 | 1.78 | 0.964 | 1.17 | 1.12
SEPDLYCDPRG [PKP1_Y160] | 1.03 | 0.93 | 0.563 | 2.48 | 4.34 | 3.01 | 1.94 | 1.45 | 2.37 | 1.15 | 1.95 | 5.26 | 1.23 | 1.46 | 1.31 | 2.17
DDKEFYSVHNK [MET_Y1235_Y1230D_YF] | 0.831 | 0.621 | 0.486 | 0.882 | 0.488 | 0.527 | 0.525 | 0.571 | 0.47 | 0.99 | 0.413 | 0.453 | 0.854 | 0.422 | 0.828 | 0.531
VIKDKYPKAHY [APTX_Y209_R213H] | 1.19 | 1.11 | 0.956 | 0.449 | 0.268 | 0.359 | 0.34 | 0.505 | 0.358 | 0.599 | 0.278 | 0.273 | 0.579 | 0.285 | 0.561 | 0.377
EEGNPYFSSAR [MCCC2_Y520_YF] | 0.769 | 0.627 | 0.51 | 1.01 | 0.446 | 0.623 | 0.461 | 0.648 | 0.43 | 0.966 | 0.61 | 0.638 | 0.818 | 0.462 | 0.796 | 1.15
RMSQRYRDVLQ [CYP1A2_Y72_G73R] | 0.719 | 0.548 | 0.495 | 1.11 | 0.422 | 0.719 | 0.484 | 0.549 | 0.396 | 1.08 | 0.593 | 0.66 | 0.905 | 0.522 | 0.769 | 0.745
RAADYYSQQMA [GBP6_Y334] | 1.01 | 0.63 | 0.545 | 0.537 | 0.917 | 0.339 | 1.38 | 0.875 | 0.416 | 0.619 | 0.371 | 0.456 | 0.672 | 0.39 | 0.576 | 0.435
VNFGAYINDFN [GLB1_Y488_K493N_YF] | 3.12 | 0.674 | 1.48 | 0.954 | 0.633 | 0.6 | 0.474 | 0.708 | 0.571 | 1.07 | 0.451 | 0.46 | 0.899 | 0.409 | 0.788 | 0.397
TNGFTCGSSHQ [MANEA_Y331_Y331C] | 0.791 | 0.642 | 0.544 | 0.608 | 0.451 | 0.486 | 0.46 | 0.545 | 0.412 | 0.836 | 0.618 | 0.477 | 0.663 | 0.435 | 0.728 | 0.392
NGPDVYVLPLT [AATK_Y93] | 0.804 | 0.743 | 0.552 | 1.33 | 0.626 | 0.511 | 0.685 | 0.613 | 0.414 | 0.792 | 2.32 | 0.671 | 0.8 | 1.69 | 0.645 | 1.04

The next lines start with results.

SH2 binding enrichment (Grb2 SH2) | SH2 binding enrichment (SHP2-C SH2) | SH2 binding enrichment (c-Src SH2) | Sequence | phosphorylation enrichment (AncSZ) | phosphorylation enrichment (EPHB1) | phosphorylation enrichment (EPHB2) | phosphorylation enrichment (FGFR1) | phosphorylation enrichment (FGFR3) | phosphorylation enrichment (Fer (mouse)) | phosphorylation enrichment (Fes) | phosphorylation enrichment (Fyn) | phosphorylation enrichment (Hck) | phosphorylation enrichment (Jak2) | phosphorylation enrichment (MERTK) | phosphorylation enrichment (c-Abl (mouse)) | phosphorylation enrichment (c-Src)
1.14 | 0.628 | 0.615 | NTGDFYDLFGG [PTPN11_Y63_YF] | 1.23 | 0.587 | 0.632 | 0.582 | 0.709 | 1.82 | 1.06 | 4.89 | 3.44 | 0.985 | 2.97 | 0.773 | 4.45
0.942 | 1.09 | 0.359 | QAEEWYFGKMG [YES1_Y159] | 1.28 | 0.498 | 0.48 | 1.17 | 1.07 | 0.603 | 1.13 | 0.773 | 0.847 | 1.44 | 0.439 | 1.05 | 0.787
0.947 | 0.7 | 0.65 | TQRPFYKGGGG [TYROBP_Y112_YF] | 0.48 | 0.221 | 0.31 | 0.346 | 0.438 | 0.331 | 0.512 | 0.314 | 0.42 | 0.451 | 0.331 | 0.624 | 0.403
0.681 | 0.715 | 0.471 | ESSKAYERDLS [TTC37_Y1074_A1077D] | 0.735 | 0.394 | 0.488 | 0.384 | 0.524 | 0.519 | 0.771 | 0.419 | 0.456 | 0.499 | 0.432 | 0.533 | 0.402
0.913 | 0.861 | 0.675 | ICANKYMVESC [RPL10_Y75_K78E] | 0.982 | 0.482 | 0.502 | 0.596 | 0.659 | 0.455 | 1.14 | 0.47 | 0.574 | 0.982 | 0.432 | 0.657 | 0.53
0.84 | 0.673 | 2.01 | GRRGQYVMLSE [TTC7A_Y396] | 0.692 | 0.431 | 0.494 | 0.506 | 0.532 | 0.45 | 0.586 | 0.546 | 0.512 | 0.573 | 0.673 | 0.565 | 0.549
0.851 | 0.512 | 0.348 | TFGNLYGSRKQ [YIPF7_Y59_A54T_YF] | 0.629 | 0.366 | 0.398 | 0.514 | 0.421 | 0.457 | 0.788 | 0.911 | 3.44 | 0.507 | 0.641 | 0.585 | 1.81
0.795 | 0.652 | 0.826 | ASELGYQFQAI [UROD_Y133_V134Q] | 0.77 | 0.362 | 0.5 | 0.525 | 0.59 | 0.493 | 0.92 | 0.407 | 0.468 | 0.679 | 0.387 | 0.596 | 0.46
1.61 | 1.67 | 1.48 | CTTIHYNFRCN [TP53_Y234_M237R_YF] | 0.763 | 0.536 | 0.499 | 0.487 | 0.637 | 0.462 | 0.804 | 0.471 | 0.439 | 0.56 | 0.386 | 0.584 | 0.469
1.54 | 1.53 | 1.36 | VIVRMYDYHVL [RPF2_Y109_G106V] | 1.2 | 2.24 | 3.26 | 3.25 | 2.12 | 4.25 | 1.04 | 0.499 | 0.587 | 0.975 | 2.39 | 0.746 | 0.498
0.811 | 0.521 | 0.533 | IENKLYGMSDP [RET_Y1062] | 0.941 | 0.506 | 0.653 | 0.585 | 0.689 | 0.666 | 0.988 | 0.613 | 0.732 | 0.617 | 0.546 | 0.707 | 0.698
0.899 | 0.928 | 0.778 | VMLENYSNLLS [ZFP69_Y109_V113L] | 0.66 | 1.97 | 0.864 | 0.559 | 0.586 | 0.372 | 0.832 | 0.396 | 0.422 | 0.699 | 0.388 | 0.595 | 0.428
0.951 | 0.788 | 0.815 | KPGLVYNKVNP [SPRED3_Y72] | 0.704 | 0.413 | 0.395 | 0.383 | 0.453 | 0.409 | 0.595 | 0.424 | 0.603 | 0.936 | 0.402 | 0.675 | 0.539
